Molecular target: full length STAT6 (human) (UniProt P42226)
Assay: cell-based or functional assay

Sequence of full length STAT6 (human) (P42226 2-847): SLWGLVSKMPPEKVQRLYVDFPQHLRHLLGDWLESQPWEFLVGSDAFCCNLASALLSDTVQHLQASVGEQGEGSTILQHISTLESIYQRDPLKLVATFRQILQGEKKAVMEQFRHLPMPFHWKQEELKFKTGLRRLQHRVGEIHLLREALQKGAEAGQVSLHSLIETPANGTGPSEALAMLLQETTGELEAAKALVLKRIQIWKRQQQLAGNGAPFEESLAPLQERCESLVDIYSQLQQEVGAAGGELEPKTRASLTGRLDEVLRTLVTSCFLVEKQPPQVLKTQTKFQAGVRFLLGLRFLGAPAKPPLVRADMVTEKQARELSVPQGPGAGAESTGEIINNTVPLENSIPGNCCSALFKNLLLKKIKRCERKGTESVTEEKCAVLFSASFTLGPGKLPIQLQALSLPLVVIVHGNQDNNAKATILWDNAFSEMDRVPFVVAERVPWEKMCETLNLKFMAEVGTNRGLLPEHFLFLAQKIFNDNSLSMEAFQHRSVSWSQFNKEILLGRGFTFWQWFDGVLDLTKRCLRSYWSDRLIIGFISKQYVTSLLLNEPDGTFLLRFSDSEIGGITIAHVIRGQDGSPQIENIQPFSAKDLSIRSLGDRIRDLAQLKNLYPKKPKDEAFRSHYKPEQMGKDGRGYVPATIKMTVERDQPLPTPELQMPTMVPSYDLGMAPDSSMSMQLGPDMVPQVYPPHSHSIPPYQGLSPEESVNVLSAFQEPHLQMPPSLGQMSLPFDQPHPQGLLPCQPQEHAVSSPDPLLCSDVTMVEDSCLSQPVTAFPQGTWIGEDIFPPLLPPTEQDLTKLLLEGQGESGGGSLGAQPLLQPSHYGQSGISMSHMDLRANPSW

In the case of “NCoA-1 (nuclear coactivator 1), full length (from UniProt P70365 2-1447)”, the luciferase reporter with multimerized STAT6 response elements, HepG2 cells, IL-4 induced is reported as < 3 fold.

Source: patent US20030092619A1
